Laboratory results from patent EP1018344A2.

Biological target: HLA-A2.1 (as the chimeric class I molecule A2.1/K^b on Jurkat A2.1/K^b cells) (human; mouse), A*02:0
Experiment: cell-based or functional assay

Substance | inhibition of release of serine esterase from CTL line 219 [%]
peptide 799.02 (HBenv194-213) (from UniProt P03138 194-213) | > 25
peptide 799.04 (HBenv234-253) (from UniProt P03138 234-253) | > 25
peptide 799.05 (HBenv246-265) (from UniProt P03138 246-265) | > 25
peptide 799.08 (HBenv309-328) | > 25
peptide 799.09 (HBenv329-348) | > 25
peptide 799.10 (HBenv349-368) | > 25
peptide 800.04 (HBenv47-63) (from UniProt P03138 47-63) | > 25
peptide 800.05 (HBenv63-77) (from UniProt P03138 63-77) | > 25
peptide 801.02 (HBenv141-157) (from UniProt P03138 141-157) | > 25
peptide 802.01 (HBc11-27) (from UniProt P03146 11-27) | > 25
peptide 802.03 (HBc91-110) | > 25
peptide 802.04 (HBc111-125) (from UniProt P03146 111-125) | > 25
peptide 802.06 (HBc162-176) (from UniProt P03146 162-176) | > 25
